Series [1] deals with fluoroacetate dehalogenase (FAcD) RPA1163 (Rhodopseudomonas palustris, UniProt Q6NAM1, F40A). As to the kind of experiment: isothermal microcalorimetry steady-state kinetics. The series is classed as biochemical. As to conditions: read-out: Fluoroacetate / Km; 100 mM Tris-H2SO4 pH 8.5, 30°C.
The target in series [2] is fluoroacetate dehalogenase (FAcD) RPA1163 (Rhodopseudomonas palustris, UniProt Q6NAM1, H155N). As to the kind of experiment: isothermal microcalorimetry steady-state kinetics. As to conditions: read-out: Fluoroacetate / Km; 100 mM Tris-H2SO4 pH 8.5, 30°C. The series is classed as biochemical.
In series [3] the target is fluoroacetate dehalogenase (FAcD) RPA1163 (Rhodopseudomonas palustris, UniProt Q6NAM1, Y219F). As to the kind of experiment: isothermal microcalorimetry steady-state kinetics. The series is classed as biochemical. As to conditions: read-out: Fluoroacetate / Km; 100 mM Tris-H2SO4 pH 8.5, 30°C.
Series [4] addresses fluoroacetate dehalogenase (FAcD) RPA1163 (Rhodopseudomonas palustris, UniProt Q6NAM1, W156H). As to the kind of experiment: isothermal microcalorimetry steady-state kinetics. The series is classed as biochemical. The following applies: read-out: Fluoroacetate / Km; 100 mM Tris-H2SO4 pH 8.5, 30°C.
Series [5] deals with fluoroacetate dehalogenase (FAcD) RPA1163 (Rhodopseudomonas palustris, UniProt Q6NAM1, W185F). As to the kind of experiment: isothermal microcalorimetry steady-state kinetics. The series is classed as biochemical. The following applies: read-out: Fluoroacetate / Km; 100 mM Tris-H2SO4 pH 8.5, 30°C.
Series [6] deals with O=C(O)CCl. As to the kind of experiment: isothermal microcalorimetry steady-state kinetics. The series is classed as biochemical, Rhodopseudomonas palustris. The following applies: 100 mM Tris-H2SO4 pH 8.5, 30°C.
Series [7] concerns the molecule itself. Description: crystal structure.

Regarding `O=C(O)CF` [fluoroacetate], the Km is 4400 ± 800 µM in series [1]; 2900 ± 200 µM in series [2]; 1700 ± 200 µM in series [3]; 8000 ± 3000 µM in series [4]; 3300 ± 600 µM in series [5].

As to “fluoroacetate dehalogenase (FAcD) RPA1163 (Rhodopseudomonas palustris CGA009; F40A)”, in series [6], the Km stood at 1500 ± 400 µM; the kcat (in general, the maximal rate divided by the concentration of active sites) was determined as 0.000483 ± 0.00015 s⁻¹; the catalytic efficiency (kcat/Km) (commonly the turnover number divided by the Michaelis constant) is 0.32 M⁻¹ s⁻¹.

For “fluoroacetate dehalogenase (FAcD) RPA1163 (Rhodopseudomonas palustris CGA009; H155N)”, in series [6], the Km was determined as 2000 ± 300 µM, the kcat worked out at 0.0883 ± 0.00833 s⁻¹ and the kcat/Km was 45 M⁻¹ s⁻¹.

Take “fluoroacetate dehalogenase (FAcD) RPA1163 (Rhodopseudomonas palustris CGA009; W156H)”: in series [6], the Km amounted to 6000 ± 1000 µM, the kcat was determined as 0.00167 ± 0.000333 s⁻¹ and the catalytic efficiency (kcat/Km) was found to be 0.27 M⁻¹ s⁻¹.

On to “fluoroacetate dehalogenase (FAcD) RPA1163 (Rhodopseudomonas palustris CGA009; W185F)”, for which, in series [6], the Km is 1000 ± 300 µM, the kcat stood at 0.00533 ± 0.000667 s⁻¹ and the kcat/Km stood at 5 M⁻¹ s⁻¹.

Consider “fluoroacetate dehalogenase (FAcD) RPA1163 (Rhodopseudomonas palustris CGA009; Y219F)”, for which, in series [6], the Km came out at 1000 ± 70 µM, the catalytic constant (kcat) was found to be 0.007 ± 0.000667 s⁻¹ and the specificity constant (kcat/Km) came out at 7 M⁻¹ s⁻¹.

B1: fluoroacetate dehalogenase RPA1163 (wild type) (enzyme, Rhodopseudomonas palustris CGA009)
chain: MPDLADLFPGFGSEWINTSSGRIFARVGGDGPPLLLLHGFPQTHVMWHRVAPKLAERFKVIVADLPGYGWSDMPESDEQHTPYTKRAMAKQLIEAMEQLGHVHFALAGHDRGARVSYRLALDSPGRLSKLAVLDILPTYEYWQRMNRAYALKIYHWSFLAQPAPLPENLLGGDPDFYVKAKLASWTRAGDLSAFDPRAVEHYRIAFADPMRRHVMCEDYRAGAYADFEHDKIDVEAGNKIPVPMLALWGASGIAQSAATPLDVWRKWASDVQGAPIESGHFLPEEAPDQTAEALVRFFSAAP
Regarding B1, the stoichiometry N (in general, the number of molecules, sites or subunits per partner or assembly) in series [7] is 2.
